Results taken from the supplement of paper PMC10567573.

B1: CDC14A (parent)
chain: LNLAMVYRYCCKLNKKLKSYSLSR
B2: TRIM63 (parent)
chain: FRCPTCRHEVIMDRHGVYGLQRNL

Variants of: B1
Assay: protein stability index of a GFP-peptide fusion (GPS, HEK-293T) (PSI 1-6); higher = more stable
Details: c terminus: a fixed tail appended
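Further: lentivirally expressed fusions sorted by FACS into six bins by GFP to DsRed ratio, PSI derived from sequencing read proportions per bin multiplied by bin number.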

Variant	protein stability index
LNLAMVYRYCCKLNKKLKSHSLSR	3.02
LNLAMVYRYCCKLNKKLKSQSLSR	3.1
ENLAMVYRYCCKLNKKLKSYSLSR	3.44
LNLAMVYRTCCKLNKKLKSYSLSR	2.54
LNLAMVYRYCCKLNMKLKSYSLSR	1.07
LNLAMVYRYCCKLNLKLKSYSLSR	3.39
LNLAMVYRYCCKLNKKLKSYSLST	1.99
LNLAMVYRYCCKLNKKLKSYSLSI	3.79
LNLAMVYRYCCKLNKKLKSYSLSK	2.13
LNLAMVYRYCCKLNKKLKSYSLSD	3.64
LNLAMVYTYCCKLNKKLKSYSLSR	2.03
LNLAMVYSYCCKLNKKLKSYSLSR	2.98
LNLAMVYRYCCKLMKKLKSYSLSR	1.94
LNLAMVYRYCCKLAKKLKSYSLSR	3.35
LNLAMVYRYCCKLNKKLKWYSLSR	3.46
LNLAMVYRYCCKLNKKLKRYSLSR	3.44
LNPAMVYRYCCKLNKKLKSYSLSR	3.05
LNFAMVYRYCCKLNKKLKSYSLSR	3.38
LNSAMVYRYCCKLNKKLKSYSLSR	2.2

Variant	protein stability index
LNLAMVYRYCCKNNKKLKSYSLSR	1.89
LNLAMVYRYCCKQNKKLKSYSLSR	3.27
LNLAMVYRYCCKINKKLKSYSLSR	2.69
LNLRMVYRYCCKLNKKLKSYSLSR	3.08
LNLIMVYRYCCKLNKKLKSYSLSR	2.37
LNLAMVYRYCCKLNKKLKSYILSR	3.96
LNLAMVYRYCCKLNKKLKSYYLSR	2.62
LNLAMVYRYCCKLNKKLKSYDLSR	2.01
LMLAMVYRYCCKLNKKLKSYSLSR	3.27
LNLAMVYRYCGKLNKKLKSYSLSR	4.89
LNLAHVYRYCCKLNKKLKSYSLSR	3.35
LNLAFVYRYCCKLNKKLKSYSLSR	2.8
LNLAMVYRYCCKLNKSLKSYSLSR	2.33
LNLAMVYRYCCKLNKNLKSYSLSR	2.32
LNLAMVYRYCCKLNKILKSYSLSR	1.62
LNLAMVYRYCCGLNKKLKSYSLSR	1.89
LNLAMVYRYCCHLNKKLKSYSLSR	1.73
LNLAMVYRYCCYLNKKLKSYSLSR	2.51
LNLAMVYRYCCKLNKKLKSYSLPR	2.95

Variant	protein stability index
LNLAMVYRYCCKLNKKLKSYSLHR	2.36
LNLAMVYRYCCKLNKKLKSYSLVR	2.77
LNLAMVYRYCCKLNKKLESYSLSR	3.12
LNLAMVYRYCCKLNKKLGSYSLSR	3.2
LNLAMVYRYCCKLNKKLKSYSWSR	2.76
LNLAMVYRYCCKLNKKLKSYSFSR	3.36
LNLAMVYRYDCKLNKKLKSYSLSR	2.31
LNLAMVYRYHCKLNKKLKSYSLSR	3.62
LNLAMVYRYWCKLNKKLKSYSLSR	3.64
LNLAMVERYCCKLNKKLKSYSLSR	2.16
LNLAMVKRYCCKLNKKLKSYSLSR	2.13
LNLAMIYRYCCKLNKKLKSYSLSR	3.28
LNLAMSYRYCCKLNKKLKSYSLSR	2.5
LNLAMLYRYCCKLNKKLKSYSLSR	2.01
LNLAMKYRYCCKLNKKLKSYSLSR	2.39
LNLAMVYRYCCKLNKKYKSYSLSR	3.33
LNLAMVYRYCCKLNKKDKSYSLSR	2.14
LNLAMVYRYCCKLNKKTKSYSLSR	2.08
LNLAMVYRYCCKLNKKKKSYSLSR	2.24

Variants of: B2
Assay: as above
Details: c terminus: a fixed tail appended

Variant	protein stability index
FRCPCCRHEVIMDRHGVYGLQRNL	2.14
FRCPACRHEVIMDRHGVYGLQRNL	2.39
FRCPVCRHEVIMDRHGVYGLQRNL	3.27
FRCPQCRHEVIMDRHGVYGLQRNL	1.64
FRCPSCRHEVIMDRHGVYGLQRNL	1.82
FRCPYCRHEVIMDRHGVYGLQRNL	2.65
FRCPDCRHEVIMDRHGVYGLQRNL	3.7
FRCPICRHEVIMDRHGVYGLQRNL	2.53
FRCPNCRHEVIMDRHGVYGLQRNL	3.43
FRCPKCRHEVIMDRHGVYGLQRNL	2.38
FRCPGCRHEVIMDRHGVYGLQRNL	1.33
FRCPFCRHEVIMDRHGVYGLQRNL	2.32
FRCPRCRHEVIMDRHGVYGLQRNL	1.77
FRCPWCRHEVIMDRHGVYGLQRNL	2.17
FRCPHCRHEVIMDRHGVYGLQRNL	3.16
FRCPMCRHEVIMDRHGVYGLQRNL	2.28
FRCPLCRHEVIMDRHGVYGLQRNL	1.72
FRCFTCRHEVIMDRHGVYGLQRNL	3.47
FRCITCRHEVIMDRHGVYGLQRNL	3.9
FRCNTCRHEVIMDRHGVYGLQRNL	3.06
FRCETCRHEVIMDRHGVYGLQRNL	2.16
FRCHTCRHEVIMDRHGVYGLQRNL	3.24

Variant	protein stability index
FRCRTCRHEVIMDRHGVYGLQRNL	2.18
FRCSTCRHEVIMDRHGVYGLQRNL	2.93
FRCATCRHEVIMDRHGVYGLQRNL	2.38
FRCQTCRHEVIMDRHGVYGLQRNL	3.65
FRCYTCRHEVIMDRHGVYGLQRNL	2.74
FRCVTCRHEVIMDRHGVYGLQRNL	2.99
FRCDTCRHEVIMDRHGVYGLQRNL	2.24
FRCTTCRHEVIMDRHGVYGLQRNL	3.2
FRCKTCRHEVIMDRHGVYGLQRNL	2.67
FRCGTCRHEVIMDRHGVYGLQRNL	1.38
NRCPTCRHEVIMDRHGVYGLQRNL	3.53
ARCPTCRHEVIMDRHGVYGLQRNL	1.16
TRCPTCRHEVIMDRHGVYGLQRNL	3.56
HRCPTCRHEVIMDRHGVYGLQRNL	2.39
YRCPTCRHEVIMDRHGVYGLQRNL	1.96
VRCPTCRHEVIMDRHGVYGLQRNL	2.15
ERCPTCRHEVIMDRHGVYGLQRNL	2.69
LRCPTCRHEVIMDRHGVYGLQRNL	3.27
KRCPTCRHEVIMDRHGVYGLQRNL	2.91
CRCPTCRHEVIMDRHGVYGLQRNL	2.44
PRCPTCRHEVIMDRHGVYGLQRNL	3.34
DRCPTCRHEVIMDRHGVYGLQRNL	2.76

Variant	protein stability index
IRCPTCRHEVIMDRHGVYGLQRNL	1.47
MRCPTCRHEVIMDRHGVYGLQRNL	2.72
SRCPTCRHEVIMDRHGVYGLQRNL	2.62
WRCPTCRHEVIMDRHGVYGLQRNL	2.14
GRCPTCRHEVIMDRHGVYGLQRNL	1.38
FRCPTARHEVIMDRHGVYGLQRNL	2.57
FRCPTKRHEVIMDRHGVYGLQRNL	2.15
FRCPTNRHEVIMDRHGVYGLQRNL	2.38
FRCPTLRHEVIMDRHGVYGLQRNL	2.16
FRCPTSRHEVIMDRHGVYGLQRNL	2.09
FRCPTYRHEVIMDRHGVYGLQRNL	2.37
FRCPTGRHEVIMDRHGVYGLQRNL	2.31
FRCPTPRHEVIMDRHGVYGLQRNL	2.89
FRCPTQRHEVIMDRHGVYGLQRNL	2.73
FRCPTMRHEVIMDRHGVYGLQRNL	2.06
FRCPTFRHEVIMDRHGVYGLQRNL	1.63
FRCPTERHEVIMDRHGVYGLQRNL	2.61
FRCPTHRHEVIMDRHGVYGLQRNL	1.91
FRCPTTRHEVIMDRHGVYGLQRNL	2.97
FRCPTWRHEVIMDRHGVYGLQRNL	1.77
FRCPTDRHEVIMDRHGVYGLQRNL	2.62
FRCPTIRHEVIMDRHGVYGLQRNL	1.89

Variant	protein stability index
FRCPTRRHEVIMDRHGVYGLQRNL	2.27
FRCPTVRHEVIMDRHGVYGLQRNL	2.51
FRCPTCRIEVIMDRHGVYGLQRNL	2.11
FRCPTCRFEVIMDRHGVYGLQRNL	2.64
FRCPTCRAEVIMDRHGVYGLQRNL	2.6
FRCPTCRCEVIMDRHGVYGLQRNL	2.52
FRCPTCREEVIMDRHGVYGLQRNL	1.81
FRCPTCRKEVIMDRHGVYGLQRNL	2.02
FRCPTCRDEVIMDRHGVYGLQRNL	1.77
FRSPTCRHEVIMDRHGVYGLQRNL	2.41
FRRPTCRHEVIMDRHGVYGLQRNL	1.54
FRLPTCRHEVIMDRHGVYGLQRNL	2.9
FRKPTCRHEVIMDRHGVYGLQRNL	1.74
FRPPTCRHEVIMDRHGVYGLQRNL	1.94
FRTPTCRHEVIMDRHGVYGLQRNL	1.52
FRAPTCRHEVIMDRHGVYGLQRNL	3.2
FRGPTCRHEVIMDRHGVYGLQRNL	2.15
FRFPTCRHEVIMDRHGVYGLQRNL	3.62
FRYPTCRHEVIMDRHGVYGLQRNL	3.25
FRMPTCRHEVIMDRHGVYGLQRNL	4.35
FRWPTCRHEVIMDRHGVYGLQRNL	2.18
FRNPTCRHEVIMDRHGVYGLQRNL	3.22

Variant	protein stability index
FRHPTCRHEVIMDRHGVYGLQRNL	4.77
FRVPTCRHEVIMDRHGVYGLQRNL	2.12
FRQPTCRHEVIMDRHGVYGLQRNL	1.78
FREPTCRHEVIMDRHGVYGLQRNL	2.04
FRIPTCRHEVIMDRHGVYGLQRNL	2.6
FRDPTCRHEVIMDRHGVYGLQRNL	1.7
FQCPTCRHEVIMDRHGVYGLQRNL	1.84
FKCPTCRHEVIMDRHGVYGLQRNL	1.77
FFCPTCRHEVIMDRHGVYGLQRNL	3.38
FWCPTCRHEVIMDRHGVYGLQRNL	2.42
FLCPTCRHEVIMDRHGVYGLQRNL	1.98
FNCPTCRHEVIMDRHGVYGLQRNL	1.44
FYCPTCRHEVIMDRHGVYGLQRNL	1.87
FSCPTCRHEVIMDRHGVYGLQRNL	1.4
FCCPTCRHEVIMDRHGVYGLQRNL	2.58
FMCPTCRHEVIMDRHGVYGLQRNL	2.58
FPCPTCRHEVIMDRHGVYGLQRNL	1.56
FDCPTCRHEVIMDRHGVYGLQRNL	3.32
FHCPTCRHEVIMDRHGVYGLQRNL	2.17
FTCPTCRHEVIMDRHGVYGLQRNL	2.05
FECPTCRHEVIMDRHGVYGLQRNL	2.55
FGCPTCRHEVIMDRHGVYGLQRNL	3.06

Variant	protein stability index
FICPTCRHEVIMDRHGVYGLQRNL	2.79
FVCPTCRHEVIMDRHGVYGLQRNL	1.86
FACPTCRHEVIMDRHGVYGLQRNL	2.96
FRCPTCSHEVIMDRHGVYGLQRNL	2.24
FRCPTCFHEVIMDRHGVYGLQRNL	2.42
FRCPTCKHEVIMDRHGVYGLQRNL	3.15
FRCPTCPHEVIMDRHGVYGLQRNL	2.36
FRCPTCNHEVIMDRHGVYGLQRNL	3
FRCPTCCHEVIMDRHGVYGLQRNL	2.24
FRCPTCMHEVIMDRHGVYGLQRNL	2.42
FRCPTCEHEVIMDRHGVYGLQRNL	2.09
FRCPTCGHEVIMDRHGVYGLQRNL	3.57
FRCPTCHHEVIMDRHGVYGLQRNL	2.46
FRCPTCYHEVIMDRHGVYGLQRNL	1.94
FRCPTCTHEVIMDRHGVYGLQRNL	2.35
FRCPTCDHEVIMDRHGVYGLQRNL	3.28
FRCPTCWHEVIMDRHGVYGLQRNL	2.12
FRCPTCVHEVIMDRHGVYGLQRNL	2.93
FRCPTCAHEVIMDRHGVYGLQRNL	2.63
FRCPTCQHEVIMDRHGVYGLQRNL	2.48
FRCPTCLHEVIMDRHGVYGLQRNL	2.13
